EP3436577B1

Molecular target: cation-independent mannose-6-phosphate receptor (CIMPR)
Assay: CIMPR affinity chromatography with M6P elution gradient; spent cell culture medium before AEX product capture

percent able to bind to the CIMPR: 80%
Substance: recombinant human α-galactosidase A (rhα-Gal A) (from UniProt P06280 32-429) (enzyme)
